Measured values: paper PMC2824034, “The indispensable N-terminal half of eIF3j/HCR1 co-operates with its structurally conserved binding partner eIF3b/PRT1-RRM and eIF1A in stringent AUG selection” (Journal of molecular biology, 2010)
Numbering of substitutions follows the chain as printed. Names may count otherwise.

B1: heIF3j_(35-69) peptide (peptide, UniProt O75822 35-69, looked up)
peptide: GGDRWEGEDEDEDVKDNWDDDDDEKKEEAEVKPEV
notes: human eIF3j, residues 35-69, with the N-terminal acidic motif (NTA) around Trp52; 13C/15N-labeled in some NMR samples; also called heIF3j peptide; short heIF3j peptide; source: E. coli BL21(DE3), purified (nickel-chelating column, TEV cleavage, nickel column, HiTrap DEAE); not shown: His6, N-terminal, cleaved; lipoyl domain, N-terminal, cleaved
B2: heIF3b-RRM_(170-274) (domain or fragment, human, UniProt P55884 170-274, looked up)
chain: GDVLKDRPQEADGIDSVIVVDNVPQVGPDRLEKLKNVIHKIFSKFGKITNDFYPEEDGKTKGYIFLEYASPAHAVDAVKNADGYKLDKQHTFRVNLFTDFDKYMT
notes: 13C/15N-labeled in some NMR samples; The limits are printed for the NMR complex; the ITC names only heIF3b-RRM; also called human eIF3b-RRM; heIF3b-RRM domain; source: E. coli BL21(DE3), purified (nickel-chelating column, TEV cleavage, second nickel column)
B3: His6-heIF3b-RRM-F261A (domain or fragment, human, UniProt P55884 170-274, looked up)
chain: B2 chain with F92A
notes: human eIF3b, RNA recognition motif domain, F261A; source: E. coli BL21(DE3), purified (nickel-chelating column)
B4: His6-heIF3b-RRM-I210A (domain or fragment, human, UniProt P55884 170-274, looked up)
chain: B2 chain with I41A
notes: human eIF3b, RNA recognition motif domain, I210A; source: E. coli BL21(DE3), purified (nickel-chelating column)
B5: His6-heIF3b-RRM-Y253A (domain or fragment, human, UniProt P55884 170-274, looked up)
chain: B2 chain with Y84A
notes: human eIF3b, RNA recognition motif domain, Y253A; source: E. coli BL21(DE3), purified (nickel-chelating column)

Key:
Conditions in all cases: both partners purified
[1] = biological target: B2; experiment: NMR solution structure; 13C/15N-labeled heIF3b-RRM with heIF3j peptide or labeled peptide with heIF3b-RRM; 20 mM deuterated TRIS pH 7.5, 100 mM NaCl, 25°C; 0.7 mM RRM, 0.7-1.0 mM peptide; 32 intermolecular NOEs
[2] = biological target: T1, heIF3j (full-length, untagged, wt) (human, UniProt O75822 1-258); experiment: ITC; VP-ITC; cell: 50 μM full-length heIF3j wt or mutant; syringe: 1 mM heIF3b-RRM; 20 mM Hepes pH 7.5, 200 mM NaCl, 25°C
T1 construct: human eIF3j, full length; also called human eIF3j; wt heIF3j; source: E. coli BL21(DE3), purified (nickel-chelating column, TEV cleavage, second nickel column)

[3] = biological target: T2, heIF3j-N51A (human, UniProt O75822 1-258, N51A); experiment: as above
T2 construct: human eIF3j, full length, N51A; source: E. coli BL21(DE3), purified (nickel-chelating column, TEV cleavage, second nickel column)

[4] = biological target: T3, heIF3j-N51A-W52A (human, UniProt O75822 1-258, N51A | W52A); experiment: as above
T3 construct: human eIF3j, full length, N51A and W52A; source: E. coli BL21(DE3), purified (nickel-chelating column, TEV cleavage, second nickel column)

[5] = biological target: T4, heIF3j-D50K-D53K-D57K (human, UniProt O75822 1-258, D50K | D53K | D57K); experiment: as above
T4 construct: human eIF3j, full length, D50K, D53K and D57K; source: E. coli BL21(DE3), purified (nickel-chelating column, TEV cleavage, second nickel column)

[6] = biological target: T5, heIF3j-W52A (human, UniProt O75822 1-258, W52A); experiment: as above
T5 construct: human eIF3j, full length, W52A; source: E. coli BL21(DE3), purified (nickel-chelating column, TEV cleavage, second nickel column)

[7] = biological target: T1, heIF3j (full-length, untagged, wt); experiment: pull-down; His6-heIF3b-RRM (wt or mutant) incubated with untagged full-length heIF3j (30 μM each) 15 min at room temperature, His-select spin columns; 50 mM sodium phosphate pH 8, 100 mM NaCl; washes with 5 mM imidazole, elution with 250 mM imidazole; SDS-PAGE, InstantBlue

T1 sequence (O75822 whole entry): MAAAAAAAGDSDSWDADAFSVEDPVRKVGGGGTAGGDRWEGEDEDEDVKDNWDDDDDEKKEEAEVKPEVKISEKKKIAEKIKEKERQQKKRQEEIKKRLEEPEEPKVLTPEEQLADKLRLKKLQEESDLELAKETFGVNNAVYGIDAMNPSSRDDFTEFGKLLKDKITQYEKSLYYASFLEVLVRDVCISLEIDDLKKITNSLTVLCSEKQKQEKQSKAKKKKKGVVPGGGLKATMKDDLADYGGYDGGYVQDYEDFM
T3 sequence (O75822 whole entry N51A/W52A): as the sequence (O75822 whole entry) above, with N51A, W52A counted along it
T5 sequence (O75822 whole entry W52A): as the sequence (O75822 whole entry) above, with W52A counted along it
T2 sequence (O75822 whole entry N51A): as the sequence (O75822 whole entry) above, with N51A counted along it
T4 sequence (O75822 whole entry D50K/D53K/D57K): as the sequence (O75822 whole entry) above, with D50K, D53K, D57K counted along it

Binder: B1
binding result [1]: binds

Binder: B2
Kd [2]: 20.3 µM
Kd [3]: 55 ± 0.3 µM
Kd [4]: > 10000 µM
Kd [5]: > 10000 µM
Kd [6]: > 10000 µM

Binder: B3
binding result [7]: binds

Binder: B4
binding result [7]: binds

Binder: B5
binding result [7]: binds
